Data: patent US20140087995A1 (published 2014)
Numbered stars: 1 amine (or outer) side, 2 acyl side, 3 side chain; on linkers, the order of the positions; unused ones are H or OH. Bridge positions count the residues as written; N and C are the ends. Side chains are listed from the residue outwards. Ends that are not written are not given here. * marks the point of attachment. C20 diacid = O=C(O)CCCCCCCCCCCCCCCCCCC(=O)*; γGlu = O=C(O)[C@H](CCC(=O)[*:2])N[*:1]; AEEA = NCCOCCOCC(=O)O

T1: human amylin receptor (amylin 3(a) receptor: human calcitonin receptor plus RAMP-3) (human, UniProt P30988 25-474; O60896 24-148, limits assumed)
T1 sequence (looked up) 1: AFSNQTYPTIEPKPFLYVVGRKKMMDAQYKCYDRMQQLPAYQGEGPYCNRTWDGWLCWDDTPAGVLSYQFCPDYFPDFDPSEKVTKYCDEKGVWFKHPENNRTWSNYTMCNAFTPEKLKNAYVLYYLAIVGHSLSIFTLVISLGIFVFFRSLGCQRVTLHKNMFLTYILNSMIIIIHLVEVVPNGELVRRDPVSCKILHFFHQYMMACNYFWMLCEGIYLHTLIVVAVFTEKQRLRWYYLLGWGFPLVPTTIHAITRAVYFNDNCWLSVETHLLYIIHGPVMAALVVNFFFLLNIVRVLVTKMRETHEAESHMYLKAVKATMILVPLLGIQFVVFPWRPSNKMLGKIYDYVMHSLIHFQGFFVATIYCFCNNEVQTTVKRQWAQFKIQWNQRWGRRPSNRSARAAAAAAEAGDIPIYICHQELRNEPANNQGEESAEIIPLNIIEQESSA
T1 sequence (looked up) 2: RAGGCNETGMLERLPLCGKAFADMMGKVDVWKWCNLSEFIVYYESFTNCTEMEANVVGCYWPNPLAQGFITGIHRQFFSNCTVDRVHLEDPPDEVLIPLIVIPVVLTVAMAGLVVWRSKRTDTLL

T2: human calcitonin receptor (human, UniProt P30988 25-474)
T2 sequence (looked up): T1 sequence (looked up) 1

B1: N^ε1-[2-[2-[2-[[(4S)-4-carboxy-4-(19-carboxynonadecanoylamino)butanoyl]amino]ethoxy]ethoxy]acetyl]-[Arg17,Pro21,Pro27,Pro29,Pro31]-h-amylin (peptide)
peptide: K([AEEA-γGlu-C20 diacid])CNTATCATQRLANFLRHSSPNFGAIPSPTPVGSNTY-NH2
modifications: disulfide 2-7; N-terminus assumed
SMILES: CC[C@H](C)[C@H](NC(=O)[C@H](C)NC(=O)CNC(=O)[C@H](Cc1ccccc1)NC(=O)[C@H](CC(N)=O)NC(=O)[C@@H]1CCCN1C(=O)[C@H](CO)NC(=O)[C@H](CO)NC(=O)[C@H](Cc1c[nH]cn1)NC(=O)[C@H](CCCNC(=N)N)NC(=O)[C@H](CC(C)C)NC(=O)[C@H](Cc1ccccc1)NC(=O)[C@H](CC(N)=O)NC(=O)[C@H](C)NC(=O)[C@H](CC(C)C)NC(=O)[C@H](CCCNC(=N)N)NC(=O)[C@H](CCC(N)=O)NC(=O)[C@@H](NC(=O)[C@H](C)NC(=O)[C@@H]1CSSC[C@H](NC(=O)[C@@H](N)CCCCNC(=O)COCCOCCNC(=O)CC[C@H](NC(=O)CCCCCCCCCCCCCCCCCCC(=O)O)C(=O)O)C(=O)N[C@@H](CC(N)=O)C(=O)N[C@@H]([C@@H](C)O)C(=O)N[C@@H](C)C(=O)N[C@@H]([C@@H](C)O)C(=O)N1)[C@@H](C)O)C(=O)N1CCC[C@H]1C(=O)N[C@@H](CO)C(=O)N1CCC[C@H]1C(=O)N[C@H](C(=O)N1CCC[C@H]1C(=O)N[C@H](C(=O)NCC(=O)N[C@@H](CO)C(=O)N[C@@H](CC(N)=O)C(=O)N[C@H](C(=O)N[C@@H](Cc1ccc(O)cc1)C(N)=O)[C@@H](C)O)C(C)C)[C@@H](C)O
notes: Synthetic acylated analogue of human amylin; also called compound 54
B2: N^ε1-[(4S)-4-carboxy-4-(19-carboxynonadecanoylamino)butanoyl]-[Arg17,Pro21,Pro27,Lys35]-h-amylin (peptide)
peptide: K([γGlu-C20 diacid])CNTATCATQRLANFLRHSSPNFGAIPSSTNVGSKTY-NH2
modifications: disulfide 2-7; N-terminus assumed
SMILES: CC[C@H](C)[C@H](NC(=O)[C@H](C)NC(=O)CNC(=O)[C@H](Cc1ccccc1)NC(=O)[C@H](CC(N)=O)NC(=O)[C@@H]1CCCN1C(=O)[C@H](CO)NC(=O)[C@H](CO)NC(=O)[C@H](Cc1c[nH]cn1)NC(=O)[C@H](CCCNC(=N)N)NC(=O)[C@H](CC(C)C)NC(=O)[C@H](Cc1ccccc1)NC(=O)[C@H](CC(N)=O)NC(=O)[C@H](C)NC(=O)[C@H](CC(C)C)NC(=O)[C@H](CCCNC(=N)N)NC(=O)[C@H](CCC(N)=O)NC(=O)[C@@H](NC(=O)[C@H](C)NC(=O)[C@@H]1CSSC[C@H](NC(=O)[C@@H](N)CCCCNC(=O)CC[C@H](NC(=O)CCCCCCCCCCCCCCCCCCC(=O)O)C(=O)O)C(=O)N[C@@H](CC(N)=O)C(=O)N[C@@H]([C@@H](C)O)C(=O)N[C@@H](C)C(=O)N[C@@H]([C@@H](C)O)C(=O)N1)[C@@H](C)O)C(=O)N1CCC[C@H]1C(=O)N[C@@H](CO)C(=O)N[C@@H](CO)C(=O)N[C@H](C(=O)N[C@@H](CC(N)=O)C(=O)N[C@H](C(=O)NCC(=O)N[C@@H](CO)C(=O)N[C@@H](CCCCN)C(=O)N[C@H](C(=O)N[C@@H](Cc1ccc(O)cc1)C(N)=O)[C@@H](C)O)C(C)C)[C@@H](C)O
notes: Synthetic acylated analogue of human amylin; also called compound 35
B3: N^ε1-[(4S)-4-carboxy-4-(19-carboxynonadecanoylamino)butanoyl]-[Glu14,Arg17,Pro21,Pro27,Arg35]-h-amylin (peptide)
peptide: K([γGlu-C20 diacid])CNTATCATQRLAEFLRHSSPNFGAIPSSTNVGSRTY-NH2
modifications: disulfide 2-7; N-terminus assumed
SMILES: CC[C@H](C)[C@H](NC(=O)[C@H](C)NC(=O)CNC(=O)[C@H](Cc1ccccc1)NC(=O)[C@H](CC(N)=O)NC(=O)[C@@H]1CCCN1C(=O)[C@H](CO)NC(=O)[C@H](CO)NC(=O)[C@H](Cc1c[nH]cn1)NC(=O)[C@H](CCCNC(=N)N)NC(=O)[C@H](CC(C)C)NC(=O)[C@H](Cc1ccccc1)NC(=O)[C@H](CCC(=O)O)NC(=O)[C@H](C)NC(=O)[C@H](CC(C)C)NC(=O)[C@H](CCCNC(=N)N)NC(=O)[C@H](CCC(N)=O)NC(=O)[C@@H](NC(=O)[C@H](C)NC(=O)[C@@H]1CSSC[C@H](NC(=O)[C@@H](N)CCCCNC(=O)CC[C@H](NC(=O)CCCCCCCCCCCCCCCCCCC(=O)O)C(=O)O)C(=O)N[C@@H](CC(N)=O)C(=O)N[C@@H]([C@@H](C)O)C(=O)N[C@@H](C)C(=O)N[C@@H]([C@@H](C)O)C(=O)N1)[C@@H](C)O)C(=O)N1CCC[C@H]1C(=O)N[C@@H](CO)C(=O)N[C@@H](CO)C(=O)N[C@H](C(=O)N[C@@H](CC(N)=O)C(=O)N[C@H](C(=O)NCC(=O)N[C@@H](CO)C(=O)N[C@@H](CCCNC(=N)N)C(=O)N[C@H](C(=O)N[C@@H](Cc1ccc(O)cc1)C(N)=O)[C@@H](C)O)C(C)C)[C@@H](C)O
notes: Synthetic acylated analogue of human amylin; also called compound 51
B4: N^ε1-[(4S)-4-carboxy-4-(19-carboxynonadecanoylamino)butanoyl]-[Arg17,Pro21,Pro27,Glu35]-h-amylin (peptide)
peptide: K([γGlu-C20 diacid])CNTATCATQRLANFLRHSSPNFGAIPSSTNVGSETY-NH2
modifications: disulfide 2-7; N-terminus assumed
SMILES: CC[C@H](C)[C@H](NC(=O)[C@H](C)NC(=O)CNC(=O)[C@H](Cc1ccccc1)NC(=O)[C@H](CC(N)=O)NC(=O)[C@@H]1CCCN1C(=O)[C@H](CO)NC(=O)[C@H](CO)NC(=O)[C@H](Cc1c[nH]cn1)NC(=O)[C@H](CCCNC(=N)N)NC(=O)[C@H](CC(C)C)NC(=O)[C@H](Cc1ccccc1)NC(=O)[C@H](CC(N)=O)NC(=O)[C@H](C)NC(=O)[C@H](CC(C)C)NC(=O)[C@H](CCCNC(=N)N)NC(=O)[C@H](CCC(N)=O)NC(=O)[C@@H](NC(=O)[C@H](C)NC(=O)[C@@H]1CSSC[C@H](NC(=O)[C@@H](N)CCCCNC(=O)CC[C@H](NC(=O)CCCCCCCCCCCCCCCCCCC(=O)O)C(=O)O)C(=O)N[C@@H](CC(N)=O)C(=O)N[C@@H]([C@@H](C)O)C(=O)N[C@@H](C)C(=O)N[C@@H]([C@@H](C)O)C(=O)N1)[C@@H](C)O)C(=O)N1CCC[C@H]1C(=O)N[C@@H](CO)C(=O)N[C@@H](CO)C(=O)N[C@H](C(=O)N[C@@H](CC(N)=O)C(=O)N[C@H](C(=O)NCC(=O)N[C@@H](CO)C(=O)N[C@@H](CCC(=O)O)C(=O)N[C@H](C(=O)N[C@@H](Cc1ccc(O)cc1)C(N)=O)[C@@H](C)O)C(C)C)[C@@H](C)O
notes: Synthetic acylated analogue of human amylin; also called compound 27
B5: N^ε1-[2-[2-[2-[[(4S)-4-carboxy-4-(19-carboxynonadecanoylamino)butanoyl]amino]ethoxy]ethoxy]acetyl]-[Arg17,Pro21,Pro27,Pro31]-h-amylin (peptide)
peptide: K([AEEA-γGlu-C20 diacid])CNTATCATQRLANFLRHSSPNFGAIPSSTPVGSNTY-NH2
modifications: disulfide 2-7; N-terminus assumed
SMILES: CC[C@H](C)[C@H](NC(=O)[C@H](C)NC(=O)CNC(=O)[C@H](Cc1ccccc1)NC(=O)[C@H](CC(N)=O)NC(=O)[C@@H]1CCCN1C(=O)[C@H](CO)NC(=O)[C@H](CO)NC(=O)[C@H](Cc1c[nH]cn1)NC(=O)[C@H](CCCNC(=N)N)NC(=O)[C@H](CC(C)C)NC(=O)[C@H](Cc1ccccc1)NC(=O)[C@H](CC(N)=O)NC(=O)[C@H](C)NC(=O)[C@H](CC(C)C)NC(=O)[C@H](CCCNC(=N)N)NC(=O)[C@H](CCC(N)=O)NC(=O)[C@@H](NC(=O)[C@H](C)NC(=O)[C@@H]1CSSC[C@H](NC(=O)[C@@H](N)CCCCNC(=O)COCCOCCNC(=O)CC[C@H](NC(=O)CCCCCCCCCCCCCCCCCCC(=O)O)C(=O)O)C(=O)N[C@@H](CC(N)=O)C(=O)N[C@@H]([C@@H](C)O)C(=O)N[C@@H](C)C(=O)N[C@@H]([C@@H](C)O)C(=O)N1)[C@@H](C)O)C(=O)N1CCC[C@H]1C(=O)N[C@@H](CO)C(=O)N[C@@H](CO)C(=O)N[C@H](C(=O)N1CCC[C@H]1C(=O)N[C@H](C(=O)NCC(=O)N[C@@H](CO)C(=O)N[C@@H](CC(N)=O)C(=O)N[C@H](C(=O)N[C@@H](Cc1ccc(O)cc1)C(N)=O)[C@@H](C)O)C(C)C)[C@@H](C)O
notes: Synthetic acylated analogue of human amylin; also called compound 49
B6: N^ε1-[2-[2-[2-[[(4S)-4-carboxy-4-(19-carboxynonadecanoylamino)butanoyl]amino]ethoxy]ethoxy]acetyl]-[Arg17,Pro21,Pro27,Pro34]-h-amylin (peptide)
peptide: K([AEEA-γGlu-C20 diacid])CNTATCATQRLANFLRHSSPNFGAIPSSTNVGPNTY-NH2
modifications: disulfide 2-7; N-terminus assumed
SMILES: CC[C@H](C)[C@H](NC(=O)[C@H](C)NC(=O)CNC(=O)[C@H](Cc1ccccc1)NC(=O)[C@H](CC(N)=O)NC(=O)[C@@H]1CCCN1C(=O)[C@H](CO)NC(=O)[C@H](CO)NC(=O)[C@H](Cc1c[nH]cn1)NC(=O)[C@H](CCCNC(=N)N)NC(=O)[C@H](CC(C)C)NC(=O)[C@H](Cc1ccccc1)NC(=O)[C@H](CC(N)=O)NC(=O)[C@H](C)NC(=O)[C@H](CC(C)C)NC(=O)[C@H](CCCNC(=N)N)NC(=O)[C@H](CCC(N)=O)NC(=O)[C@@H](NC(=O)[C@H](C)NC(=O)[C@@H]1CSSC[C@H](NC(=O)[C@@H](N)CCCCNC(=O)COCCOCCNC(=O)CC[C@H](NC(=O)CCCCCCCCCCCCCCCCCCC(=O)O)C(=O)O)C(=O)N[C@@H](CC(N)=O)C(=O)N[C@@H]([C@@H](C)O)C(=O)N[C@@H](C)C(=O)N[C@@H]([C@@H](C)O)C(=O)N1)[C@@H](C)O)C(=O)N1CCC[C@H]1C(=O)N[C@@H](CO)C(=O)N[C@@H](CO)C(=O)N[C@H](C(=O)N[C@@H](CC(N)=O)C(=O)N[C@H](C(=O)NCC(=O)N1CCC[C@H]1C(=O)N[C@@H](CC(N)=O)C(=O)N[C@H](C(=O)N[C@@H](Cc1ccc(O)cc1)C(N)=O)[C@@H](C)O)C(C)C)[C@@H](C)O
notes: Synthetic acylated analogue of human amylin; also called compound 50

target: T1, human amylin receptor (amylin 3(a) …); assay: cell-based or functional assay

In order of rising “Ratio hCT/hAmylin funct.” value:
1. B1  9.6 ratio
2. B3  14 ratio
3. B2  15 ratio
4. B6  17.4 ratio
5. B5  22.5 ratio
6. B4  22.6 ratio

In order of rising “hAmylin-R funct. EC50” value:
1. B6  0.038 nM
2. B1  0.103 nM
3. B5  0.106 nM
4. B4  0.133 nM
5. B2  0.364 nM
6. B3  0.372 nM

target: T2, human calcitonin receptor; assay: cell-based or functional assay

In order of rising “hCTR funct. EC50” value:
1. B6  0.662 nM
2. B1  0.987 nM
3. B5  2.39 nM
4. B4  3 nM
5. B3  5.22 nM
6. B2  5.46 nM
